Patent US20080248054

Biological target: Jun kinase JNK1, Q91Y86
Sequence (Q91Y86 whole entry): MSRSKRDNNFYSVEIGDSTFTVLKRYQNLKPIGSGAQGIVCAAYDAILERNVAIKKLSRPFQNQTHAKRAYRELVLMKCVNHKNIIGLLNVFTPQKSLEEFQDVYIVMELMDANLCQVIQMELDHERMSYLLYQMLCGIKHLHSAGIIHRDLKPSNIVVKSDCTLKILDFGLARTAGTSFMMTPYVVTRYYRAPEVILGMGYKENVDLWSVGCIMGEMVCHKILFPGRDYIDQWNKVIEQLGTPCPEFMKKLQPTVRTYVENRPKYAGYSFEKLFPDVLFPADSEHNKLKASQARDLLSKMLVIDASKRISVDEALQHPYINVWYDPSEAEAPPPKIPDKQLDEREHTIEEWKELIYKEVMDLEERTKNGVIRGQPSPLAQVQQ

B1: murine MINK (Misshapen/NIKs-related kinase) (protein)
chain: MGDPAPARSLDDIDLSALRDPAGIFELVEVVGNGTYGQVYKGRHVKTGQLAAIKVMDVTEDEEEEIKQEINMLKKYSHHRNIATYYGAFIKKSPPGNDDQLWLVMEFCGAGSVTDLVKNTKGNALKEDCIAYICREILRGLAHLHAHKVIHRDIKGQNVLLTENAEVKLVDFGVSAQLDRTVGRRNTFIGTPYWMAPEVIACDENPDATYDYRSDIWSLGITAIEMAEGAPPLCDMHPMRALFLIPRNPPPRLKSKKWSKKFTDFIDTCLIKTYLSRPPTEQLLKFPFIRDQPTERQVRIQLKDHIDRSRKKRGEKEETEYEYSGSEEEDDSHGEEGEPSSIMNVPGESTLRREFLRLQQENKSNSEALKQQQQLQQQQQRDPEAHIKHLLHQRQRRIEEQKEERRRVEEQQRREREQRKLQEKEQQRRLEDMQALRREEERRQAEREQEYKRKQLEEQRQSERLQRQLQQEHAYLKSLQQQQQQQQLQKQQQQQQQILPGDRKPLYHYGRGINPADKPAWAREVEERARMNKQQNSPLAKRSQAGAGPEPPISQASPSPPGPLSQTPPMQRPVEPQEGPHKSLVAHRVPLKPYAAPVPRSQSLQDQPTRNLAAFPASHDPDPAAVPTPTATPSARGAVIRQNSDPTSEGPGPSPNPPSWVRPDNEAPPKVPQRTSSIATALNTSGAGGSRPAQAVRASNPDLRRSDPGWERSDSVLPASHGHLPQAGSLERNRNRVGASTKLDSSPVLSPGNKAKPEDHRSRPGRPADFVLLKERTLDEAPKPPKKAMDYSSSSEEVESSEEEEEEGDGEPSEGSRDTPGGRSDGDTDSVTTMVVHDVEEISGTQPSYGGGTMVVQRTPEEERSLLLADSNGYTNLPDVVQPSHSPTENSKGQSPPTKDGGSDYQSRGLVKAPGKSSFTMFVDLGIYQPGGSGDTIPITALVGGEGGRLDQLQFDVRKGSVVNVNPTNTRAHSETPEIRKYKKRFNSEILCAALWGVNLLVGTENGLMLLDRSGQGKVYGLIGRRRFQQMDVLEGLNLLITISGKRNKLRVYYLSWLRNKILHNDPEVEKKQGWTTVGDMEGCGHYRVVKYERIKFLVIALKNSVEVYAWAPKPYHKFMAFKSFADLPHRPLLVDLTVEEGQRLKVIYGSSAGFHAVDVDSGNSYDIYIPVHIQSQITPHAIIFLPNTDGMEMLLCYEDEGVYVNTYGRIIKDVVLQWGEMPTSVAYICSNQIMGWGEKAIEIRSVETGHLDGVFMHKRAQRLKFLCERNDKVFFASVRSGGSSQVYFMTLNRNCIMNW
levels of phosphorylated JNK in DP thymocytes after CD3/CD28 ligation (Western blot, anti-phospho-JNK1): MINK-deficient DP thymocytes express markedly reduced levels of phosphorylated JNK compared with control mice after CD3/CD28 ligation
